Like-named read-outs stand apart in the source and are kept apart here. Bridges are numbered along the chain shown (N, C = ends). Where no end group is shown, it is not given here.
Legend:
CB2R [1] = molecular target: T1, CB2R (Homo sapiens, UniProt P34972); format: cell-based
[2] = system: untransfected CHO-K1 cells; experiment: cAMP assay in untransfected CHO-K1 cells; format: cell-based; conditions: vodo-C1 30 µM; CP55940 and 2-AG 10 µM and 1 µM, alone or with 10 μM vBCL1-4
CB2R [3] = molecular target: T1, CB2R; experiment: cell-based; format: cell-based; conditions: for decrease of efficacy of 2-AG to recruit β-arrestin-2 / decrease of efficacy of CP55940 to recruit β-arrestin-2: single point, peptide 10 μM; for decrease of efficacy of 2-AG to recruit β-arrestin-2: 2-AG 1 μM; for decrease of efficacy of CP55940 to recruit β-arrestin-2: CP55940 1 μM
CB2R [4] = molecular target: T1, CB2R; experiment: cAMP assay; format: cell-based; conditions: varying concentrations, inverse agonist control
CB2R [5] = molecular target: T1, CB2R; experiment: cAMP assay in the absence of forskolin; format: cell-based; conditions: 10 µM peptide with varying CP55940, no forskolin
CB2R [6] = molecular target: T1, CB2R; experiment: Radioligand displacement of [3H]-CP55940 at human CB2R membrane preparations; format: binding; conditions: peptide 100 nM and 10 μM; [3H]-CP55940 0.5 nM mixed with cold CP55940 4.5 nM

T1 sequence (P34972 whole entry): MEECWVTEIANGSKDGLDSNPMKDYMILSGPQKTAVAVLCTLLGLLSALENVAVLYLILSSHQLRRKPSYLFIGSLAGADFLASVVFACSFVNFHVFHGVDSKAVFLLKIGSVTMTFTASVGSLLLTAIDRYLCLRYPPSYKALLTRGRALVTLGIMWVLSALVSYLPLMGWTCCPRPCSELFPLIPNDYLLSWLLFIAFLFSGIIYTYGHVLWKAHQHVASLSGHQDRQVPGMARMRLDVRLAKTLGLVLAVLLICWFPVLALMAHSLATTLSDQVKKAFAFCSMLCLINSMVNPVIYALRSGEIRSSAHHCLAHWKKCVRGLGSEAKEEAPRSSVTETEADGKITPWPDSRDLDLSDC

## CCCCC/C=C\C/C=C\C/C=C\C/C=C\CCCC(=O)OC(CO)CO [2-AG, 2-arachidonoylglycerol, reference compound]
CB2R [1]; EC50 of agonist alone, agonist alone
  EC50: 480 nM
[2]
  changes in cAMP levels in untransfected cells: no changes in cAMP levels
CB2R [3]
  EC50: 600 nM

## CCCCCCC(C)(C)c1ccc([C@@H]2C[C@H](O)CC[C@H]2CCCO)c(O)c1 [CP55940]
[2]
  changes in cAMP levels in untransfected cells: no changes in cAMP levels

## SR144528
CB2R [4]
  effect on basal levels of CB2R activity: reduced the basal levels of CB2R activity

## vBCL1: vodo-C1-inspired bicyclic loop peptide, loops 1 and 2, 10 residues, cyclized with 1,3,5-tris-(bromomethyl)-benzene (CGETCFTGKC; linker 1-5-10 via 1,3,5‑tris‑(bromomethyl)‑benzene (inferred))
CB2R [1]; 10 μM peptide
  EC50 fold shift relative to 2-AG: ~6 fold
  EC50 fold shift relative to WIN55,212-2: ~6 fold
CB2R [3]
  decrease of efficacy of 2-AG to recruit β-arrestin-2: no or only minor (not significant) changes
  decrease of efficacy of CP55940 to recruit β-arrestin-2: no or only minor (not significant) changes

## vBCL3: vodo-C1-inspired bicyclic loop peptide, loops 5 and 6, 15 residues, cyclized with 1,3,5-tris-(bromomethyl)-benzene (CEWPICTKNGDPLPC; linker 1-6-15 via 1,3,5‑tris‑(bromomethyl)‑benzene (inferred))
CB2R [1]; 10 μM peptide
  EC50 fold shift relative to 2-AG: ~6 fold
  EC50 fold shift relative to WIN55,212-2: ~6 fold
  decrease of the efficacy of CP55940: ~40%
  effect on basal activity (WIN55,212-2 curve): reduced the basal activity
  effect on basal response (CP55940 curve): reduction in basal response
CB2R [5]
  intrinsic inverse agonist activity: lacks intrinsic inverse agonist activity
CB2R [6]
  binding to the receptor (two-point displacement): did not bind to the receptor
CB2R [3]
  decrease of efficacy of 2-AG to recruit β-arrestin-2: no or only minor (not significant) changes
  decrease of efficacy of CP55940 to recruit β-arrestin-2: no or only minor (not significant) changes

From paper PMC11154713 (The Journal of Biological Chemistry, 2024)
